{
  "source": "patent US6919309B2",
  "about": "“Methods and compositions for inhibiting angiogenesis” (Northwestern University, priority 1997, dated 2005)",
  "molecules": {"B1": {"name": "PEDF: full length pigment epithelium derived growth factor, SEQ ID NO:1; purified from WERI-Rb-27R medium or recombinant histidine-tagged (protein, listed as Homo Sapiens)", "chain": "MQALVLLLCIGALLGHSSCQNPASPPEEGSPDPDSTGALVEEEDPFFKVPVNKLAAAVSNFGYDLYRVRSSMSPTTNVLLSPLSVATALSALSLGADERTESIIHRALYYDLISSPDIHGTYKELLDTVTAPQKNLKSASRIVFEKKLRIKSSFVAPLEKSYGTRPRVLTGNPRLDLQEINNWVQAQMKGKLARSTKEIPDEISILLLGVAHFKGQWVTKFDSRKTSLEDFYLDEERTVRVPMMSDPKAVLRYGLDSDLSCKIAQLPLTGSMSIIFFLPLKVTQNLTLIEESLTSEFIHDIDRELKTVQAVLTVPKLKLSYEGEVTKSLQEMKLQSLFDSPDFSKITGKPIKLTQVEHRAGFEWNEDGAGTTPSPGLQPAHLTFPLDYHLNQPFIFVLRDTDTGALLFIGKILDPRGP"}},
  "key": {"retina of C57/BL6 mice": {"system": "retina of C57/BL6 mice", "test": "Hyperoxia-induced ischemic retinopathy, systemic treatment", "type": "in vivo, mouse", "details": "day 12 through 16", "method": "Retinopathy was induced in C57/BL6 mice by placing seven day old mice with their dams in an oxygen tent and maintaining the animals in a 75% oxygen/25% nitrogen environment until day twelve. On day twelve, the animals were removed from the tent and placed at ambient atmosphere (21% oxygen). From day twelve through day sixteen, pups were treated via intraperitoneal injection once per day with 100 μl of either phosphate buffered saline (PBS) vehicle, or 11.2 μg or 22.4 μg PEDF in PBS. Pups were anesthetized with Metaphane and perfused with 1 ml of fixative (4% paraformaldehyde/100 mM sodium phosphate buffer (pH 7.2)/4% sucrose) through the left ventricle of the heart. Eyes were removed and placed in fixative, embedded in paraffin, and processed for histologic examination. Cross sections of the eye were made, stained with hematoxylin-phloxine-saffarin (HPS), and the number of endothelial cell nuclei crossing the inner limiting membrane of the retina were counted in one cross section that contained the cornea, lens, retina and optic nerve. FIG. 16A illustrates retinopathy in the eye of a PBS treated animal, the box surrounds a vascular tuft that has penetrated the inner limiting membrane of the retinal in the low power picture. FIGS. 16C and 16D illustrate the eye of a PEDF treated mouse, no vascular tufts are present. The # of endothelial cell nuclei were quantified (Table 3)."}, "avascular rat cornea": {"system": "avascular rat cornea", "test": "Rat cornea neovascularization assay (implanted pellets)", "type": "in vivo", "method": "FIG. 13, comprising FIGS. 13A and 13B, is a table and a series of images of photomicrographs depicting inhibition of neovascularization by purified PEDF and by PEDF present naturally in normal human vitreous and cornea. FIG. 13A: Recombinant (rPEDF) or purified (pPEDF) PEDF (8 nM), PEDF peptide 327 to 343 (299 μg/ml), undiluted vitreous fluid, or corneal extract (used at 200 μg of protein per milliliter) was incorporated with vehicle (PBS) and the indicated additions into Hydron pellets that were implanted into the avascular rat cornea. Vigorous ingrowth of vessels from the limbus toward the pellet by 7 days was scored as a positive response (Polverini, et al, 1991, Methods Enzymol 198:440). Where noted, anti-PEDF linked to protein A beads was used to remove PEDF from vitreous fluid and corneal extract. FIG. 13B, comprising FIGS. 13B-1 through 13B-8: Representative photos of corneal responses from FIG. 13A shown at X13 magnification. PEDF antipeptide antibody (anti-PEDF) was raised in rabbits against a peptide containing pEDF amino acids 327-343, conjugated to Keyhole-limpet hemocyanin, and affinity-purified on a peptide column. Polyclonal antisera against bacterial recombinant PEDF/EPC-1 (anti-EPC-1) is described in DePaolo, et al. (1995, Exp. Cell Res. 220:178) and the antiangiogenic protein angiostatin is descried in O'Reilly, et al. ([…], Cell 79:315). Purchased reagents included neutralizing anti-VEGF (Genzyme Cambridge, Mass.), pan antibodies to TGFβ, and all angiogenic inducers (R&D Systems, Minneapolis, Minn.) except lysophosphatidic acid (Sigma). All proteins and antibodies were extensively dialyzed against PBS before use in biological assays. FIG. 13B-1 corresponds to sample 2 of FIG. 13A; FIG. 13B-2 corresponds to sample 12 of FIG. 13A, FIG. 13B-3 corresponds to sample 3 of FIG. 13A; FIG. 13B-4 corresponds to sample 11 of FIG. 13A; FIG. 13B-5 corresponds to sample 8 of FIG. 13A; FIG. 13B-6 corresponds to sample 16 of FIG. 13A; FIG. 13B-7 corresponds to sample 6 of FIG. 13A; FIG. 13B-8 corresponds to sample 17 of FIG. 13A. […]"}, "[1]": {"system": "SK-N-BE(2) and SK-N-SH neuroblastoma cells", "test": "Differentiation of cultured human neuroblastoma cells (neurite outgrowth)", "type": "cell-based", "details": "in vitro, 24 hours, purified histidine tagged PEDF; FIGS. 9, 10", "method": "In vitro experiments were conducted to verify the effect of PEDF on cell lines derived from neuroblastoma tumors. Two neuroblastoma derived cell lines were obtained from the American Tissue Type and Culture, SK-N-BE(2) and SK-N-SH. Both cell lines were maintained in culture in DMEM containing 10% fetal bovine serum (Flow Laboratories, McLean, Va.) in 37° C. and 5% CO2. Cells (1.25×10^4/ml) were resuspended, and 1 ml/well was used to seed 24 well plates. Twenty-four hours later, PEDF was added to triplicate wells at […] , 0.75, 1 or 10 nM, and the cells were incubated for an additional 24 hours. The percentage of differentiated cells was determined by counting the total number of cells in three non-overlapping 1 mm^2 areas per well."}, "[2]": {"details": "PEDF 8 nM in pellet, seven days"}},
  "note": "Marks after values point to notes of the source that are not given here.",
  "data": [
    {"molecule": "B1", "values": [
      {"measurement": "Mean number of endothelial cell nuclei crossing ILM into vitreous per cross section", "setting": "retina of C57/BL6 mice; 11.2 μg PEDF/day intraperitoneal", "value": "18.6 +/− 2.2*"},
      {"measurement": "Mean number of endothelial cell nuclei crossing ILM into vitreous per cross section", "setting": "retina of C57/BL6 mice; 22.4 μg PEDF/day intraperitoneal", "value": "18.2 +/− 2.5*"},
      {"measurement": "effect on neovascularization in the rat cornea", "setting": "avascular rat cornea; Hydron pellets, 7 days, FIGS. 13A and 13B", "value": "potently inhibited neovascularization"},
      {"measurement": "number of corneas with angiogenesis/number of corneas implanted, With bFGF", "setting": "avascular rat cornea; [2]", "value": "0/3"},
      {"measurement": "number of corneas with angiogenesis/number of corneas implanted, Without bFGF", "setting": "avascular rat cornea; [2]", "value": "0/3"},
      {"measurement": "differentiation of neuroblastoma cells", "setting": "[1]", "value": "triggered differentiation of the cells"}
    ]}
  ]
}
